# Like-named read-outs stand apart in the source and are kept apart here.
# T1: human claudin 6 (CLDN6) (human, UniProt P56747 1-220)
# T1 construct: also called human CLDN6; hCLDN6
# T1 sequence: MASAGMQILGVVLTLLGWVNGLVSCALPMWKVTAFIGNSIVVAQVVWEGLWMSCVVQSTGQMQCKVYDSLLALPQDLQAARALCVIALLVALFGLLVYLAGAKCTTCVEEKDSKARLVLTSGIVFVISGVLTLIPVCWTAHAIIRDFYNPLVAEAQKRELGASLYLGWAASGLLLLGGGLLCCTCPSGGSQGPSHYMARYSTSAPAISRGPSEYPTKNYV
# T2: human claudin 9 (CLDN9) (human, UniProt O95484 1-217)
# T2 construct: also called human CLDN9
# T2 sequence: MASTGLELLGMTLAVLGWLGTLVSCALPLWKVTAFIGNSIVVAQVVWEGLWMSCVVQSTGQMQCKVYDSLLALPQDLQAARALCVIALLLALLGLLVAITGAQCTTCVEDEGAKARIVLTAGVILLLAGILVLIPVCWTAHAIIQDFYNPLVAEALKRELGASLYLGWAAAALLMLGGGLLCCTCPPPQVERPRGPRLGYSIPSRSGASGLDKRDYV
# T3: mouse CLDN6 (mouse, UniProt Q9Z262 1-219)
# T3 construct: whole, on cells
# T3 sequence (looked up): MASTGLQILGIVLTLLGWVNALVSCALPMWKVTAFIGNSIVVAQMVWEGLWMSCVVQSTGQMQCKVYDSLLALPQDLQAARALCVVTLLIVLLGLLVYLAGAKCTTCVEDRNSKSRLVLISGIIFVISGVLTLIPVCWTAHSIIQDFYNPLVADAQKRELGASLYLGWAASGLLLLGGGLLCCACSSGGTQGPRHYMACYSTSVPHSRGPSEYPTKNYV
# Experiments:
# CD3ε (SPR analyte) [1] = biological target: T4, CD3ε (SPR analyte) (UniProt P07766 23-126, limits assumed); assay: SPR, scFv-Fc
# T4 sequence (P07766 23-126 limits assumed): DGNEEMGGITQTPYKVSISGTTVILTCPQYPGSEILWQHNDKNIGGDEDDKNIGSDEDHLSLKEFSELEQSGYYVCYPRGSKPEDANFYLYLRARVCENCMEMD
# [2] = biological target: T5, human native CD3 on live cells (HuT78, Jurkat) (human, UniProt P07766 23-207; P09693 23-182; P04234 22-171); assay: flow cytometry on live HuT78 cells, mouse anti-human IgG secondary, MFI
# T5 construct: whole, on cells; also called human CD3
# T5 sequence (P07766 23-207, chain 1 of 3): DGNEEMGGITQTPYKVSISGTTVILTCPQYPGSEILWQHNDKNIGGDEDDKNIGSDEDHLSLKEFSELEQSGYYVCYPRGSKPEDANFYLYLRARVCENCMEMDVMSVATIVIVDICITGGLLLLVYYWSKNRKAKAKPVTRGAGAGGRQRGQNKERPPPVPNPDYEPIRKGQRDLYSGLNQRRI
# T5 sequence (P09693 23-182, chain 2 of 3): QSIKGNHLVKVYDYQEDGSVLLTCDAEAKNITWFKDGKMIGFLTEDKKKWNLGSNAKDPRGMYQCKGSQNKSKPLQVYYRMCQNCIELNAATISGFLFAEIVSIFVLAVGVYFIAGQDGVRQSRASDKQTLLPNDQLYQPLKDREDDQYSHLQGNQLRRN
# T5 sequence (P04234 22-171, chain 3 of 3): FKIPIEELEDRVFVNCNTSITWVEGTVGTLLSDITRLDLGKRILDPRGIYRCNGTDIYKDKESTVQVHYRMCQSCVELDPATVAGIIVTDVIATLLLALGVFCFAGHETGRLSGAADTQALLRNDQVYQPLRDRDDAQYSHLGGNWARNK
# Method: (§1) For affinity determination, antibodies were captured by anti-human Fc surface, and used in the affinity-assay based on surface plasmon resonance (SPR) technology. The binding activity of humanized sp34 to bind native CD3 on live cells was evaluated using HuT78 cells in a FACS based assay. Live HuT78 cells were seeded in 96-well plate, and were incubated with a series of dilutions of chimeric or humanized sp34. Mouse anti-Human IgG was used as second antibody to detect antibody binding to the cell surface. EC50 values for dose-dependent binding to human native CD3 were determined by fitting the dose-response data to the four-parameter logistic model with GraphPad Prism.
# [3] = biological target: T5, human native CD3 on live cells (HuT78, …); assay: FACS, HuT78 cells, Test 1
# Method: as §1
# [4] = biological target: T5, human native CD3 on live cells (HuT78, …); assay: FACS, HuT78 cells, Test 2
# Method: as §1
# [5] = biological target: T5, human native CD3 on live cells (HuT78, …); assay: flow cytometry on live HuT78 cells, mouse anti-human IgG secondary, MFI; remark: listed apart in the source
# Method: as §1
# CD3ε (SPR analyte) [6] = biological target: T4, CD3ε (SPR analyte); assay: SPR
# [7] = biological target: T5, human native CD3 on live cells (HuT78, …); assay: FACS, HuT78 cells
# Method: as §1
# [8] = biological target: T5, human native CD3 on live cells (HuT78, …); assay: flow cytometry on live HuT78 cells, mouse anti-human IgG secondary, MFI; remark: listed apart in the source
# Method: as §1
# [9] = biological target: T5, human native CD3 on live cells (HuT78, …); assay: FACS, HuT78 cells, Test 3
# Method: as §1
# human claudin 6 (CLDN6) [10] = biological target: T1, human claudin 6 (CLDN6); assay: flow cytometry on HEK293T/human CLDN6 cells, goat anti-human IgG secondary, MFI(PE)
# Method: (§2) For affinity determination, CLDN6 over-expressing HEK293T cells and cancer cell line PA-1 which express high levels of human CLDN6 were used to evaluate the binding activity of BG87P related engineering variants. Live cells were seeded in 96-well plate, and were incubated with a series of dilutions of chBG87P and engineered variants thereof. Goat anti-human IgG was used as second antibody to detect antibody binding to the cell surface. EC50 values for dose-dependent binding to CLDN6 expressing cell lines were determined by fitting the dose-response data to the four-parameter logistic model with GraphPad Prism. Cell binding activity of 1st round of BG87P humanization variants against HEK293T/human CLDN6 were compared to chBG87P and shown in FIG. 1A.
# human claudin 6 (CLDN6) [11] = biological target: T1, human claudin 6 (CLDN6); assay: FACS, HEK293T/human CLDN6 cells
# Method: as §2
# Beginning with the chBG87P antibody and BG87P-Bz0, several additional amino acid changes in the CDR regions of both VH and VL were made to further improve the biophysical properties for therapeutics use in human. The considerations included removing post translational modifications (PTM), improved heat stability (Tm), while maintaining binding activities, the resulted variants are BG87P-m1 (VH SEQ ID NO: 31 and VL SEQ ID NO: 8), BG87P-m2 (VH SEQ ID NO: 32 and VL SEQ ID NO: 8), BG87P-m3 (VH SEQ ID NO: 33 and VL SEQ ID NO: 8), and BG87P-m4 (VH SEQ ID NO: 34 and VL SEQ ID NO: 8) and BG87P-m5 (VH SEQ ID NO: 35 and VL SEQ ID NO: 14), BG87P-m6 (VH SEQ ID NO: 36 and VL SEQ ID NO 14), BG87P-m7 (VH SEQ ID NO: 37 and VL SEQ ID NO: 14), and BG87P-m8 (VH SEQ ID NO: 38 and VL SEQ ID NO: 14). Cell binding activity of chBG87P and BG87P-Bz0 related PTM removal variants against HEK293T/human CLDN6 was compared with chBG87P and BG87-Bz0, respectively ([…]). Cell binding affinity (EC50) and Emax (MFI) was normalized to chBG87P for directly comparison and ranking (Table 7).
# cyno CLDN6 [12] = biological target: T6, cyno CLDN6 (cyno); assay: flow cytometry on CHOK1/cyno CLDN6 cells, MFI(PE)
# T6 construct: whole, on cells; also called cynomolgus CLDN6
# cyno CLDN6 [13] = biological target: T6, cyno CLDN6; assay: FACS, HEK293T_cyno-CLDN6 cells
# cyno CLDN6 [14] = biological target: T6, cyno CLDN6; assay: FACS, HEK293T-cyno-CLDN6 cells
# human claudin 6 (CLDN6) [15] = biological target: T1, human claudin 6 (CLDN6); assay: FACS, HEK293-hCLDN6 cells
# human claudin 6 (CLDN6) [16] = biological target: T1, human claudin 6 (CLDN6); assay: FACS, PA-1 cells (endogenous CLDN6)
# Method: as §2
# human claudin 6 (CLDN6) [17] = biological target: T1, human claudin 6 (CLDN6); assay: FACS, HEK293T-hCLDN6 cells
# human claudin 9 (CLDN9) = biological target: T2, human claudin 9 (CLDN9); assay: flow cytometry on HEK293T/human CLDN9 cells, MFI(PE)
# mouse CLDN6 = biological target: T3, mouse CLDN6; assay: flow cytometry on CHOK1/mouse CLDN6 cells, MFI(PE)
Binder,Kd (CD3ε (SPR analyte) [1]) [nM],koff (CD3ε (SPR analyte) [1]) [s⁻¹],kon (CD3ε (SPR analyte) [1]) [M⁻¹ s⁻¹],EC50 (read off the curve) [2] [µg/mL],EC50 [3] [nM],EC50 [4] [nM],EC50 (read off the curve) [5] [µg/mL],EC50 (read off the curve) [8] [µg/mL],EC50 [9] [nM],EC50 (read off the curve) (human claudin 6 (CLDN6) [10]) [nM],EC50 (read off the curve) (cyno CLDN6 [12]) [nM],EC50 (cyno CLDN6 [13]) [nM],FACS Emax ratio to BG87P (cyno CLDN6 [14]) [ratio],FACS-Ec50 ratio to BG87P (human claudin 6 (CLDN6) [15]) [ratio],FACS Emax ratio to BG87P (human claudin 6 (CLDN6) [17]) [ratio],binding result (human claudin 9 (CLDN9)),other results
"humanized scFv BG562P (scFv-Fc) (Fc fusion, BG561P with L4V in VL; not shown: human IgG1 Fc region, scFv fused to its N-terminus) scFv: EVQLVESGGGLVQPGGSLRLSCAASGFTFNTYAMNWVRQAPGKGLEWVARIRSKYNNYATYYADSVKDRFTISRDDAKNSLYLQMNSLRAEDTAVYYCVRHGNFGNSYVSWFAYWGQGTLVTVSSGGGGSGGGGSGGGGSEIVVTQSPATLSVSPGERATLSCRSSTGAVTTSNYANWVQQKPGQAPRGLIGGTNKRAPGIPARFSGSLSGDEATLTISSLQSEDFAVYYCALWYSNLWVFGGGTKVEIK",3.16,0.000367,116000,~0.3,2.85,2.85,~0.1,,,,,,,,,,
"humanized sp34 scFv BG561P (scFv-Fc) (Fc fusion, scFv (VH-3xG4S-VK) fused to N-terminus of a human IgG1 Fc region; also called scFv-ized BG56P; not shown: human IgG1 Fc region, scFv fused to its N-terminus) scFv: EVQLVESGGGLVQPGGSLRLSCAASGFTFNTYAMNWVRQAPGKGLEWVARIRSKYNNYATYYADSVKDRFTISRDDAKNSLYLQMNSLRAEDTAVYYCVRHGNFGNSYVSWFAYWGQGTLVTVSSGGGGSGGGGSGGGGSEIVLTQSPATLSVSPGERATLSCRSSTGAVTTSNYANWVQQKPGQAPRGLIGGTNKRAPGIPARFSGSLSGDEATLTISSLQSEDFAVYYCALWYSNLWVFGGGTKVEIK",4.98,0.00036,72200,~0.5,2.46,,~0.3,,,,,,,,,,Kd (CD3ε (SPR analyte) [6]): 9.08 nM; koff (CD3ε (SPR analyte) [6]): 0.000401 s⁻¹; kon (CD3ε (SPR analyte) [6]): 44200 M⁻¹ s⁻¹; EC50 [7]: 4.35 nM
"humanized scFv BG564P (scFv-Fc) (Fc fusion, BG563P with N30S and N100S in VH; not shown: human IgG1 Fc region, scFv fused to its N-terminus) scFv: EVQLVESGGGLVQPGGSLRLSCAASGFTFSTYAMNWVRQAPGKGLEWVGRIRSKYNNYATYYADSVKGRFTISRDDAKNSLYLQMNSLRAEDTAVYYCVRHGNFGSSYVSWFAYWGQGTLVTVSSGGGGSGGGGSGGGGSEIVVTQSPATLSVSPGERATLSCRSSTGAVTTSNYANWVQQKPGQAPRGLIGGTNKRAPGIPARFSGSLSGDEATLTISSLQSEDFAVYYCALWYSNLWVFGGGTKVEIK",1.39,0.000576,414000,,,,,~0.1,1.23,,,,,,,,
"humanized scFv BG563P (scFv-Fc) (Fc fusion, BG561P with L4V in VL and A49G, D65G in VH; not shown: human IgG1 Fc region, scFv fused to its N-terminus) scFv: EVQLVESGGGLVQPGGSLRLSCAASGFTFNTYAMNWVRQAPGKGLEWVGRIRSKYNNYATYYADSVKGRFTISRDDAKNSLYLQMNSLRAEDTAVYYCVRHGNFGNSYVSWFAYWGQGTLVTVSSGGGGSGGGGSGGGGSEIVVTQSPATLSVSPGERATLSCRSSTGAVTTSNYANWVQQKPGQAPRGLIGGTNKRAPGIPARFSGSLSGDEATLTISSLQSEDFAVYYCALWYSNLWVFGGGTKVEIK",1.57,0.000772,493000,~0.1,,0.94,,~0.1,0.94,,,,,,,,
"chimeric BG87P antibody (chBG87P) (antibody, V domains shown) VH: QIQLQQSGPELVKPGASVKISCKASGYSFTDYHINWVKQRPGQGLEWIGWIYPGSGYTKYNEKFKVKATLTVDTSSSTAYMHLTSLTSEDSAVYFCARSGIYHYVSSYYFDHWGQGTTLTVSS VL: DIVMTQSHTFMSTSVGDRVSITCKASQDVGTAVAWYQQKPGQSPKLLIYWASTRHTGVPDRFTGSGSGTDFTLTISNVQSEDLADYFCQQYSSYTFGGGTKLEIK",,,,,,,,,,~10,~7,7.2,1,1,1,no binding (tested: about 250 nM (log 2.4)),EC50 (human claudin 6 (CLDN6) [11]): 2.72 nM; Emax ratio to BG87P (human claudin 6 (CLDN6) [11]): 1 ratio; Top MFI Mean (human claudin 6 (CLDN6) [11]): 192000 MFI; EC50 (human claudin 6 (CLDN6) [16]): 8.33 nM; Emax ratio to BG87P (human claudin 6 (CLDN6) [16]): 1 ratio; Top MFI Mean (human claudin 6 (CLDN6) [16]): 125000 MFI
"BG87P-34 (antibody, V domains shown, Framework-swapped final lead (IGHV3-23 / IGKV1-39); also called BG87-34) VH: EVQLQESGGGLVQPGGSLRLSCAASGYSFSDYHINWVRQAPGKGLEWVGYIYPGSGHTKYNEKFKGRFTISRDTSSNTAYLQMNSLRAEDTAVYYCARSGIYHYVSSYYFDHWGQGTLVTVSS VL: DIQMTQSPSSLSASVGDRVTITCKASQDAGSAVAWYQQKPGKAPKLLIYWASTRHTGVPSRFSGSGSGTDFTLTISSLQPEDFATYYCQQYSSYTFGGGTKLEIK",,,,,,,,,,~10,~9,8.8,1,1.17,1.03,no binding (tested: about 250 nM (log 2.4)),binding result (mouse CLDN6): binds
